Substitutions are numbered along the chain they refer to. Read-outs that look alike come from different tables or passages of the source. Blank lines part the entries; values can stand above or below the binder they belong to.
Experiments:
[1] = target: T1, human FcRI protein (MednaBio, E1031) (human, UniProt P12314 16-288, limits assumed); test: BLI
T1 construct: Bought; loaded on anti-penta-HIS biosensors; also called FcγRI
Summary of the method: (§1)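 On an Octet Red96 System, anti-penta-HIS biosensors loaded with commercial human Fc receptor proteins were dipped into test IgG diluted 1:3 over 8 points from 300 nM. Fcγ receptor runs used pH 7.2 and FcRn runs used pH 6. Global fitting of these biolayer interferometry data gave the values for Kd, kon and koff, using a 1:1 binding model.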

[2] = target: T2, human FcRIIA protein (MednaBio, E1033) (human, UniProt P12318 34-218, limits assumed); test: BLI
T2 construct: Bought; also called FcγRIIA
T2 sequence (looked up): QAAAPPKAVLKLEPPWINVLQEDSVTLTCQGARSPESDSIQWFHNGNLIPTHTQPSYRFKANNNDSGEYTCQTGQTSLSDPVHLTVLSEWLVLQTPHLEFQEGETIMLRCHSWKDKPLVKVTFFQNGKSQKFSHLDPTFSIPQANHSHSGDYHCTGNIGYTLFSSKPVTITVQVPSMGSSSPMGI
Summary of the method: as §1

[3] = target: T3, human FcRIIB/C protein (MednaBio, E1034) (human, UniProt P31994 43-217, limits assumed); test: BLI
T3 construct: Bought as FcRIIB/C; also called FcγRIIB; CD32B
T3 sequence (looked up): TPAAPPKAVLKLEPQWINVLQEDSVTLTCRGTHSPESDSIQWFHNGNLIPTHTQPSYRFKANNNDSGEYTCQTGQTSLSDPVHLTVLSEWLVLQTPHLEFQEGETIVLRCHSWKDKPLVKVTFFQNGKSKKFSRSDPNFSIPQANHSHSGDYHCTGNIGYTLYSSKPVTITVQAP
Summary of the method: as §1

[4] = target: T4, human FcRIIIA-F158 protein (MednaBio, E1036) (human, UniProt P08637 17-208); test: BLI
T4 construct: Bought; also called FcγRIIIA(F)
Summary of the method: as §1

[5] = target: T5, human FcRIIIA-V158 protein (MednaBio, E1035) (human, UniProt P08637 17-208); test: BLI
T5 construct: Bought; also called FcγRIIIA(V); FcgRIIIA(V)
Summary of the method: as §1

[6] = target: T6, human FcRIIIB protein (MednaBio, E1037) (human, UniProt O75015 17-200); test: BLI
T6 construct: Bought; also called FcγRIIIB; FcgRIIIB
Summary of the method: as §1

[7] = target: T7, human FcRn protein (MednaBio, E1032) (human, UniProt P55899 24-297; P61769 21-119); test: BLI
T7 construct: Bought; assays at pH 6
Summary of the method: as §1

[8] = target: T8, human FcγRIIC expressed on CHO cells (human, UniProt P31995 43-323); test: FACS, CHO cells expressing FcγRIIC
T8 construct: whole, on cells
T8 sequence (looked up): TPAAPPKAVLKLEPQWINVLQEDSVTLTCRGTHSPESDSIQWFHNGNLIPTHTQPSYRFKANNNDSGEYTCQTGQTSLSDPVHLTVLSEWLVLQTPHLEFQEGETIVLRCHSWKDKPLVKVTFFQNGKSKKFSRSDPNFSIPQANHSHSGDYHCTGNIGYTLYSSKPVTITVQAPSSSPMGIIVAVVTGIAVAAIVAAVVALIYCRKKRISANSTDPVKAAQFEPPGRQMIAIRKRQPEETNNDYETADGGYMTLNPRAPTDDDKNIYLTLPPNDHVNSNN

[9] = target: T9, human FcγRIIA(H131) expressed on CHO cells (human, UniProt P12318 34-317); test: FACS, CHO cells expressing FcγRIIA(H131)
T9 construct: whole, on cells
T9 sequence (looked up): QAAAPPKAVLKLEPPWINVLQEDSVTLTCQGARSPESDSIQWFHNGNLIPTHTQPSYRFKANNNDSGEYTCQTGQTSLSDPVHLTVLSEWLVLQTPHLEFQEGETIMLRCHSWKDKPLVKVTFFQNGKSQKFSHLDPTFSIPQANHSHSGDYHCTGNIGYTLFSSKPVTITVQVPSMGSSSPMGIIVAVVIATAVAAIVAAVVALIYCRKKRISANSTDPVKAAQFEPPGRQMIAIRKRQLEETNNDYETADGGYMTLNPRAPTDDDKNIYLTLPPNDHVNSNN
Experimental: (§2) For FACS analysis of the IgG mutants' binding to different FcγRs, FcγR overexpressing CHO cells were harvested using trypsin-EDTA and were suspended in cold staining buffer (3% BSA in PBS). Test IgG mutants, which were diluted in staining buffer, were added into the cells. The mixture was incubated 4° C. for 2 hours, and then washed twice with cold staining buffer and re-suspended in PE-labeled anti-human IgG followed by incubation at 4° C. for 2 hours. The mixture was washed twice with staining buffer and re-suspended in 2% PFA in PBS for FACS.

[10] = target: T10, human FcγRIIA(R131) expressed on CHO cells (human, UniProt P12318 34-317); test: FACS, CHO cells expressing FcγRIIA(R131)
T10 construct: whole, on cells
T10 sequence (looked up): T9 sequence (looked up) with H134R
Experimental: as §2

[11] = target: T1, human FcRI protein (MednaBio, E1031); test: BLI; remark: listed apart in the source
[12] = target: T2, human FcRIIA protein (MednaBio, E1033); test: BLI; remark: listed apart in the source
[13] = target: T3, human FcRIIB/C protein (MednaBio, E1034); test: BLI; remark: listed apart in the source
[14] = target: T4, human FcRIIIA-F158 protein (MednaBio, …); test: BLI; remark: listed apart in the source
[15] = target: T5, human FcRIIIA-V158 protein (MednaBio, …); test: BLI; remark: listed apart in the source
[16] = target: T6, human FcRIIIB protein (MednaBio, E1037); test: BLI; remark: listed apart in the source
[17] = target: T7, human FcRn protein (MednaBio, E1032); test: BLI; remark: listed apart in the source
[18] = target: T11, human FcγRI expressed on CHO cells (human, UniProt P12314 16-374); test: FACS, CHO cells expressing FcγRI
T11 construct: whole, on cells
Summary of the method: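 Trypsin-harvested CHO cells overexpressing each FcγR were incubated 2 h at 4 °C with IgG mutants in 3% BSA/PBS. Bound IgG was detected with PE-labeled anti-human IgG (2 h, 4 °C), then cells were fixed in 2% PFA and analysed by flow cytometry.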

T1 sequence (P12314 16-288 limits assumed): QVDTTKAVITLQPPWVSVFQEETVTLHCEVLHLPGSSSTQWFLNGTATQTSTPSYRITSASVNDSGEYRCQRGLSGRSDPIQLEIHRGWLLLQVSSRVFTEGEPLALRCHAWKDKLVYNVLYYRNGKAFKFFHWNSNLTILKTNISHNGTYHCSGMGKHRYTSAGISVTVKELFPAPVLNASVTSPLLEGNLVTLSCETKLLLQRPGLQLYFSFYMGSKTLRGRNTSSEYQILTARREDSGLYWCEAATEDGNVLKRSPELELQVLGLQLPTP
T6 sequence (O75015 17-200 limits assumed): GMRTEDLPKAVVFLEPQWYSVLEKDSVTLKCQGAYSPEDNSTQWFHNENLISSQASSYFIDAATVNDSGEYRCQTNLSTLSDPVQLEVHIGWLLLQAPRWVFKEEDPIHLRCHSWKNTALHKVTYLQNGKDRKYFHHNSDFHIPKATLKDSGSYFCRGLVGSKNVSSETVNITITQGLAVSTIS
T5 sequence (P08637 17-208 F176V): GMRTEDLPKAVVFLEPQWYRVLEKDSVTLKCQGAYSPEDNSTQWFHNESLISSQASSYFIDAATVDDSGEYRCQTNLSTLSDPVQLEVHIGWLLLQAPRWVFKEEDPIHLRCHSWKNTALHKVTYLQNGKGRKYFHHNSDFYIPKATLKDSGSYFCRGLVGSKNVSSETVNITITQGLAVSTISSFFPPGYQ
T4 sequence (P08637 17-208 limits assumed): as the sequence (P08637 17-208 F176V) above, with V160F counted along it
T11 sequence (P12314 16-374): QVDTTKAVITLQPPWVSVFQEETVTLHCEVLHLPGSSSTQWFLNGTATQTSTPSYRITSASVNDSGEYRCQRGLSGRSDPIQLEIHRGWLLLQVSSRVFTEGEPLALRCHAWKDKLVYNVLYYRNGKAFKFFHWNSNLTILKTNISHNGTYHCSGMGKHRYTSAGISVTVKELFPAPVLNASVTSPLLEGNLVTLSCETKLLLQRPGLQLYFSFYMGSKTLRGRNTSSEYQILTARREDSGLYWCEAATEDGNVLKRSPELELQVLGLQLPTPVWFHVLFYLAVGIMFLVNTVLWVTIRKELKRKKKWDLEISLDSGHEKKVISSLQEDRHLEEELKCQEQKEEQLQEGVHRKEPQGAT

Kd [1]: 17 nM | koff [1]: 0.0074 s⁻¹ | kon [1]: 440000 M⁻¹ s⁻¹ | binding result [2]: no binding (tested: 300 nM) | Kd [3]: 140 nM | koff [3]: 0.013 s⁻¹ | kon [3]: 94000 M⁻¹ s⁻¹ | binding result [4]: no binding (tested: 300 nM) | binding result [5]: no binding (tested: 300 nM) | binding result [6]: no binding (tested: 300 nM) | Kd [7]: 75 nM | koff [7]: 0.017 s⁻¹ | kon [7]: 230000 M⁻¹ s⁻¹ | binding result [8]: binds | binding result [9]: no binding (tested: 10 ug/ml) | binding result [10]: binds
B1: anti-CD137 IgG4 with Fc variant G4m9 (antibody)
heavy: EVQLVQSGAEVKKPGESLRISCKGSGYSFSTYWISWVRQMPGKGLEWMGKIYPGDSYTNYSPSFQGQVTISADKSISTAYLQWSSLKASDTAMYYCARGYGIFDYWGQGTLVTVSSASTKGPSVFPLAPCSRSTSESTAALGCLVKDYFPEPVTVSWNSGALTSGVHTFPAVLQSSGLYSLSSVVTVPSSSLGTKTYTCNVDHKPSNTKVDKRVESKYGPPCPPCPAPEFLGGPSVFLFPPKPKDTLMISRTPEVTCVVVDVEQEDPEVQFNWYVDGVEVHNAKTKPREEQFNSTYRVVSVLTVLHQDWLNGKEYKCKVSNKGFPSSIEKTISKAKGQPREPQVYTLPPSQEEMTKNQVSLTCLVKGFYPSDIAVEWESNGQPENNYKTTPPVLDSDGSFFLYSRLTVDKSRWQEGNVFSCSVMHEALHNHYTQKSLSLSLGK
light: SYELTQPPSVSVSPGQTASITCSGDNIGDQYAHWYQQKPGQSPVLVIYQDKNRPSGIPERFSGSNSGNTATLTISGTQAMDEADYYCATYTGFGSLAVFGGGTKLTVLGQPKAAPSVTLFPPSSEELQANKATLVCLISDFYPGAVTVAWKADSSPVKAGVETTTPSKQSNNKYAASSYLSLTPEQWKSHRSYSCQVTHEGSTVEKTVAPTECS
notes: copies: 2 + 2

binding result [11]: no binding (tested: 300 nM) | binding result [12]: no binding (tested: 300 nM) | Kd [13]: 150 nM | koff [13]: 0.046 s⁻¹ | kon [13]: 310000 M⁻¹ s⁻¹ | binding result [14]: no binding (tested: 300 nM) | binding result [15]: no binding (tested: 300 nM) | binding result [16]: no binding (tested: 300 nM) | Kd [17]: 9.8 nM | koff [17]: 0.013 s⁻¹ | kon [17]: 1.4e+06 M⁻¹ s⁻¹ | binding result [18]: no binding (tested: 10 ug/ml) | binding result [9]: no binding (tested: 10 ug/ml) | binding result [10]: no binding (tested: 10 ug/ml)
B2: anti-CD137 IgG4 with Fc variant G4m2 (antibody)
heavy: EVQLVQSGAEVKKPGESLRISCKGSGYSFSTYWISWVRQMPGKGLEWMGKIYPGDSYTNYSPSFQGQVTISADKSISTAYLQWSSLKASDTAMYYCARGYGIFDYWGQGTLVTVSSASTKGPSVFPLAPCSRSTSESTAALGCLVKDYFPEPVTVSWNSGALTSGVHTFPAVLQSSGLYSLSSVVTVPSSSLGTKTYTCNVDHKPSNTKVDKRVESKYGPPCPPCPAPEFLGPSVFLFPPKPKDTLMISRTPEVTCVVVDVSQEDPEVQFNWYVDGVEVHNAKTKPREEQFNSTYRVVSVLTVLHQDWLNGKEYKCKVSNKGLPSSIEKTISKAKGQPREPQVYTLPPSQEEMTKNQVSLTCLVKGFYPSDIAVEWESNGQPENNYKTTPPVLDSDGSFFLYSRLTVDKSRWQEGNVFSCSVMHEALHNHYTQKSLSLSLGK
light: B1 light
notes: copies: 2 + 2

Reference: patent US20200392227A1 (LYVGEN BIOPHARMA, published 2020)
